# Where a chain is given by its changes, count along the chain named. Names and notes keep the numbering of the source.
# B1: BsAb-1 (bispecific antibody, human IgG1, lambda)
# chain: EVQLVESGGGLVQPGGSLRLSCAASGFISRFYAMGWYRQAPGKQRELVARISSMGWTYYADSVKGRFTISIDNSKNTLYLQMNSLRAEDTAVYYCNARNLWGQGTLVTVSSDKTHTCPPCPAPESTRGPSVFLFPPKPKDTLMISRTPEVTCVVVDVSHEDPEVKFNWYVDGVEVHNAKTKPREEQYNSTYRVVSVLTVLHQDWLNGKEYKCKVSNKALPAPIEKTISKAKGQPREPQVCTLPPSRDELTKNQVSLSCAVKGFYPSDIAVEWESNGQPENNYKTTPPVLDSDGSFFLVSKLTVDKSRWQQGNVFSCSVMHEALHNHYTQKSLSLSPGK
# heavy: EVQLVESGGGLVQPGRSLRLSCAASGFTFNTYAMNWVRQAPGKGLEWVARIRSKYNNYATYYADSVKDRFTISRDDSKSIAYLQMNSLKTEDTAVYYCVRHGNFGNSYVSWFAYWGQGTLVTVSSASTKGPSVFPLAPSSKSTSGGTAALGCLVKDYFPEPVTVSWNSGALTSGVHTFPAVLQSSGLYSLSSVVTVPSSSLGTQTYICNVNHKPSNTKVDKKVEPKSCDKTHTCPPCPAPESTRGPSVFLFPPKPKDTLMISRTPEVTCVVVDVSHEDPEVKFNWYVDGVEVHNAKTKPREEQYNSTYRVVSVLTVLHQDWLNGKEYKCKVSNKALPAPIEKTISKAKGQPREPQVYTLPPCRDELTKNQVSLWCLVKGFYPSDIAVEWESNGQPENNYKTTPPVLDSDGSFFLYSKLTVDKSRWQQGNVFSCSVMHEALHNHYTQKSLSLSPGK
# light: QTVVTQEPSLTVSPGGTVTLTCRSSTGAVTTSNYANWVQQKPGQAPRGLIGGTNKRAPGVPARFSGSLLGGKAALTLSGVQPEDEAEYFCALWYSNLWVFGGGTKLTVLGQPKAAPSVTLFPPSSEELQANKATLVCLISDFYPGAVTVAWKADSSPVKAGVETTTPSKQSNNKYAASSYLSLTPEQWKSHRSYSCQVTHEGSTVEKTVAPTECS
# notes: human IgG1 Fc with L234S/L235T/G236R; also called BsAb-01
# B2: BsAb-15 (bispecific antibody, human IgG1, lambda)
# chain: EVQLVESGGGLVQPGGSLRLSCAASGRSFSSFQMGWFRQAPGKEREFVAASGWSGGPTYYWDSVIGRFTISTDNSKNTLYLQMNSLRAEDTAVYYCYEDRVLSGRHVRYWGQGTLVTVSSDKTHTCPPCPAPESTRGPSVFLFPPKPKDTLMISRTPEVTCVVVDVSHEDPEVKFNWYVDGVEVHNAKTKPREEQYNSTYRVVSVLTVLHQDWLNGKEYKCKVSNKALPAPIEKTISKAKGQPREPQVCTLPPSRDELTKNQVSLSCAVKGFYPSDIAVEWESNGQPENNYKTTPPVLDSDGSFFLVSKLTVDKSRWQQGNVFSCSVMHEALHNHYTQKSLSLSPGK
# heavy: B1 heavy
# light: B1 light
# B3: BsAb-5 (bispecific antibody, human IgG1, lambda)
# chain: EVQLVESGGGLVQPGGSLRLSCAASGFISRFYAMGWYRQAPGKQRELVARISSMGWTYYADSVKGRFTISIDNSKNTLYLQMNSLRAEDTAVYYCNARNLWGQGTLVTVSSGGGGSGGGGSGGGGSEVQLVESGGGLVQPGGSLRLSCAASGFISRFYAMGWYRQAPGKQRELVARISSMGWTYYADSVKGRFTISIDNSKNTLYLQMNSLRAEDTAVYYCNARNLWGQGTLVTVSSDKTHTCPPCPAPESTRGPSVFLFPPKPKDTLMISRTPEVTCVVVDVSHEDPEVKFNWYVDGVEVHNAKTKPREEQYNSTYRVVSVLTVLHQDWLNGKEYKCKVSNKALPAPIEKTISKAKGQPREPQVCTLPPSRDELTKNQVSLSCAVKGFYPSDIAVEWESNGQPENNYKTTPPVLDSDGSFFLVSKLTVDKSRWQQGNVFSCSVMHEALHNHYTQKSLSLSPGK
# heavy: B1 heavy
# light: B1 light
# notes: also called BsAb-05
# B4: BsAb-9 (bispecific antibody, human IgG1, lambda)
# chain: B1 chain
# heavy: EVQLVESGGGLVQPGGSLRLSCAASGFISRFYAMGWYRQAPGKQRELVARISSMGWTYYADSVKGRFTISIDNSKNTLYLQMNSLRAEDTAVYYCNARNLWGQGTLVTVSSGGGGSGGGGSGGGGSEVQLVESGGGLVQPGRSLRLSCAASGFTFNTYAMNWVRQAPGKGLEWVARIRSKYNNYATYYADSVKDRFTISRDDSKSIAYLQMNSLKTEDTAVYYCVRHGNFGNSYVSWFAYWGQGTLVTVSSASTKGPSVFPLAPSSKSTSGGTAALGCLVKDYFPEPVTVSWNSGALTSGVHTFPAVLQSSGLYSLSSVVTVPSSSLGTQTYICNVNHKPSNTKVDKKVEPKSCDKTHTCPPCPAPESTRGPSVFLFPPKPKDTLMISRTPEVTCVVVDVSHEDPEVKFNWYVDGVEVHNAKTKPREEQYNSTYRVVSVLTVLHQDWLNGKEYKCKVSNKALPAPIEKTISKAKGQPREPQVYTLPPCRDELTKNQVSLWCLVKGFYPSDIAVEWESNGQPENNYKTTPPVLDSDGSFFLYSKLTVDKSRWQQGNVFSCSVMHEALHNHYTQKSLSLSPGK
# light: B1 light
# notes: also called BsAb-09
# B5: BsAb-4 (bispecific antibody, human IgG1, lambda)
# chain: B2 chain with H106P
# heavy: B1 heavy
# light: B1 light
# notes: also called BsAb-04
# B6: BsAb-8 (bispecific antibody, human IgG1, lambda)
# chain: EVQLVESGGGLVQPGGSLRLSCAASGRSFSSFQMGWFRQAPGKEREFVAASGWSGGPTYYWDSVIGRFTISTDNSKNTLYLQMNSLRAEDTAVYYCYEDRVLSGRPVRYWGQGTLVTVSSGGGGSGGGGSGGGGSEVQLVESGGGLVQPGGSLRLSCAASGRSFSSFQMGWFRQAPGKEREFVAASGWSGGPTYYWDSVIGRFTISTDNSKNTLYLQMNSLRAEDTAVYYCYEDRVLSGRPVRYWGQGTLVTVSSDKTHTCPPCPAPESTRGPSVFLFPPKPKDTLMISRTPEVTCVVVDVSHEDPEVKFNWYVDGVEVHNAKTKPREEQYNSTYRVVSVLTVLHQDWLNGKEYKCKVSNKALPAPIEKTISKAKGQPREPQVCTLPPSRDELTKNQVSLSCAVKGFYPSDIAVEWESNGQPENNYKTTPPVLDSDGSFFLVSKLTVDKSRWQQGNVFSCSVMHEALHNHYTQKSLSLSPGK
# heavy: B1 heavy
# light: B1 light
# notes: also called BsAb-08
# Experiments:
# [1] = target: T1, human ROR1 protein (human, UniProt Q01973 30-403, limits assumed); assay: SPR (Biacore 8K); human ROR1 amine-coupled at 0.50 ug/mL as ligand, antibody as analyte
# T1 construct: Recombinant antigen of the SPR assay; also called ROR1 (SPR ligand)
# [2] = target: T1, human ROR1 protein; assay: SPR (Biacore 8K); human ROR1 amine-coupled at 12.50 ug/mL as ligand, antibody as analyte
# [3] = target: T1, human ROR1 protein; assay: SPR (Biacore 8K); human ROR1 amine-coupled at 62.50 ug/mL as ligand, antibody as analyte
# [4] = target: T1, human ROR1 protein; assay: SPR (Biacore 8K); human ROR1 amine-coupled at 0.05 ug/mL as ligand, antibody as analyte
# [5] = target: T1, human ROR1 protein; assay: SPR (Biacore 8K); human ROR1 amine-coupled at 2.50 ug/mL as ligand, antibody as analyte
# [6] = target: T1, human ROR1 protein; assay: SPR (Biacore 8K); human ROR1 amine-coupled at 0.10 ug/mL as ligand, antibody as analyte
# [7] = target: human ROR1 (on CHO-K1/ROR1 cells and ROR1 tumour cell lines) (human) (UniProt Q01973); assay: cell-based or functional assay
# [8] = target: T2, human ROR1 (on CHO-K1/ROR1 cells and ROR1 tumour cell lines) (human, UniProt Q01973 30-937); assay: flow cytometry on CHO-K1/ROR1 cells overexpressing human ROR1
# T2 construct: whole, on cells; also called receptor tyrosine kinase-like orphan receptor 1
# [9] = target: T3, human CD3 (on Jurkat cells) (human, UniProt P07766 23-207; P09693 23-182; P04234 22-171); assay: flow cytometry on Jurkat cells expressing human CD3
# T3 construct: whole, on cells
# T3 sequence (P07766 23-207, chain 1 of 3): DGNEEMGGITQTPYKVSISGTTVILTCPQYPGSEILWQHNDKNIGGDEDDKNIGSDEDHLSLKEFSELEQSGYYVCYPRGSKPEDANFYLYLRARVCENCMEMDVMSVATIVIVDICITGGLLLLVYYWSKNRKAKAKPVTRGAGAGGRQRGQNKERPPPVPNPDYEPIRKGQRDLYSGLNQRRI
# T3 sequence (P09693 23-182, chain 2 of 3): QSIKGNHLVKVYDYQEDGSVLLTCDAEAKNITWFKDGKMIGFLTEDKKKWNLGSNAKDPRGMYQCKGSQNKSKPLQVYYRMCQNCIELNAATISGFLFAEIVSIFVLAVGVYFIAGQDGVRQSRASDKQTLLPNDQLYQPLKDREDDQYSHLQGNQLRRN
# T3 sequence (P04234 22-171, chain 3 of 3): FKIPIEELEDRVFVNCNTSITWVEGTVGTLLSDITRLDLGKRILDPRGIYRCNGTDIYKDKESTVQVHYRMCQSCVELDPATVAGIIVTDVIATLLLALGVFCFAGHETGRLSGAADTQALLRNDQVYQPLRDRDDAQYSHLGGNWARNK
# Sequence of human ROR1 (on CHO-K1/ROR1 cells and ROR1 tumour cell lines) (human) (Q01973 30-937): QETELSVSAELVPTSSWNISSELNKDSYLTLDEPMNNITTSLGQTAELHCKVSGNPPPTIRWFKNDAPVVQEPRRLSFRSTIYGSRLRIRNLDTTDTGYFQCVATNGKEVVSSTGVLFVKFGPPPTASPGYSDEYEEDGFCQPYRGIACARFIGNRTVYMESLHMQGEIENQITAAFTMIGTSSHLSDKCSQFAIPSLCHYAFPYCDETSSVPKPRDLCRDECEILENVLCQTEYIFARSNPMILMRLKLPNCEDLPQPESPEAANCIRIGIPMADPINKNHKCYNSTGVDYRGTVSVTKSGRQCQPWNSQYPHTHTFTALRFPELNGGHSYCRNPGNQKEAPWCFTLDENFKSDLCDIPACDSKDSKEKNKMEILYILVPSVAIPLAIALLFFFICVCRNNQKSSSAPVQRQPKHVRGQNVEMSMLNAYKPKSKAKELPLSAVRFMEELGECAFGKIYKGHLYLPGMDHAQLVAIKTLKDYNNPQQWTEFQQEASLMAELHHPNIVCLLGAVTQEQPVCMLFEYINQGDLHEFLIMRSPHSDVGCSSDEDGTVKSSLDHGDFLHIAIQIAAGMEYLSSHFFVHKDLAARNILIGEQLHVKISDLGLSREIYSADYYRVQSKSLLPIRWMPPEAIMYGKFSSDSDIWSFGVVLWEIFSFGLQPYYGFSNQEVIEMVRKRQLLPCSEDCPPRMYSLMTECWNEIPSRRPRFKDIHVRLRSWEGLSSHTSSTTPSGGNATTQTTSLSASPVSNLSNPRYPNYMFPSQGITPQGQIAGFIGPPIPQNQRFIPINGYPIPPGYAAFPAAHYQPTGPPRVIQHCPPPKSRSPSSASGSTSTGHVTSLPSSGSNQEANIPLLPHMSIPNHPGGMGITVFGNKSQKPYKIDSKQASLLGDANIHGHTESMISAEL
# T2 sequence (Q01973 30-937): as above
# T1 sequence (Q01973 30-403 limits assumed): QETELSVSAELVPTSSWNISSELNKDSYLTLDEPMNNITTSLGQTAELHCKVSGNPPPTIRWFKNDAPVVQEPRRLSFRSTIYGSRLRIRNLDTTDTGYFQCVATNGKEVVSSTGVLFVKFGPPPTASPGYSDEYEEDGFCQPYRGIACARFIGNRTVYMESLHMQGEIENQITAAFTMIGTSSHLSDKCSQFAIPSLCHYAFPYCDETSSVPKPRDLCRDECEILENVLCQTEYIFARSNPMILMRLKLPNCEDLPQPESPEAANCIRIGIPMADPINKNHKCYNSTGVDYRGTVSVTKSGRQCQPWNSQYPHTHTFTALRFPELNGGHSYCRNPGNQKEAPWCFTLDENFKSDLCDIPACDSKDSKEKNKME
molecule,measurement,setting,value
NVG-111 (bispecific antibody),Kd,[1],1.92 nM
same,koff,[1],0.00122 s⁻¹
same,kon,[1],632000 M⁻¹ s⁻¹
same,Kd,[2],1.49 nM
same,koff,[2],0.00109 s⁻¹
same,kon,[2],733000 M⁻¹ s⁻¹
same,Kd,[3],1.71 nM
same,koff,[3],0.00101 s⁻¹
same,kon,[3],593000 M⁻¹ s⁻¹
same,Kd,[4],2.59 nM
same,koff,[4],0.00138 s⁻¹
same,kon,[4],532000 M⁻¹ s⁻¹
same,Kd,[5],1.64 nM
same,koff,[5],0.00118 s⁻¹
same,kon,[5],723000 M⁻¹ s⁻¹
same,Kd,[6],1.82 nM
same,koff,[6],0.00113 s⁻¹
same,kon,[6],622000 M⁻¹ s⁻¹
same,"EC50 of T cell activation based on reporter gene (luciferase), target cells A375",[7],0.0329 nM
same,"EC50 of T cell activation based on reporter gene (luciferase), target cells Jeko-1",[7],0.0358 nM
same,"EC50 of T cell activation based on reporter gene (luciferase), target cells MDA-MB-231",[7],0.01 nM
B1,EC50,[8],0.287 nM
same,EC50,[9],0.384 nM
B2,EC50,[9],0.743 nM
B3,EC50,[8],0.109 nM
same,EC50,[9],0.913 nM
B4,EC50,[8],0.0864 nM
same,Kd,[1],0.0216 nM
same,koff,[1],0.00083 s⁻¹
same,kon,[1],3.85e+07 M⁻¹ s⁻¹
same,Kd,[2],0.00664 nM
same,koff,[2],0.000242 s⁻¹
same,kon,[2],3.65e+07 M⁻¹ s⁻¹
same,Kd,[3],0.00682 nM
same,koff,[3],0.000187 s⁻¹
same,kon,[3],2.73e+07 M⁻¹ s⁻¹
same,EC50,[9],1.38 nM
same,Kd,[4],0.0811 nM
same,koff,[4],0.00143 s⁻¹
same,kon,[4],1.76e+07 M⁻¹ s⁻¹
same,Kd,[5],0.0129 nM
same,koff,[5],0.000521 s⁻¹
same,kon,[5],4.05e+07 M⁻¹ s⁻¹
same,Kd,[6],0.0497 nM
same,koff,[6],0.00113 s⁻¹
same,kon,[6],2.28e+07 M⁻¹ s⁻¹
B5,EC50,[8],0.373 nM
same,EC50,[9],0.629 nM
B6,EC50,[8],0.28 nM
same,EC50,[9],0.838 nM

# — patent publication EP4782541A1 (Nanjing Probio Biotech Co., Ltd., dated 2026)
